The nature of assay [1]: Inhibitor binding assay of SEQ ID NO 3 variants, Inhibitor 1, in Model B detergent. The settings on record: relative Ki, IF>1.0 = lower Ki. The class given is biochemical. The text has this: (§1) Where E is the protease, I is the inhibitor and EI is the protease-inhibitor complex. […] The concentration of enzyme-inhibitor in the detergent solution is then given by:
(§2) where Etot is the total protease concentration ([Etot]=[E]+[EI]), Itot is the total inhibitor concentration ([Itot]=[I]+[EI]), and Ki is the equilibrium binding constant for the reaction. The measured slopes V are given by:
(§3) where V0 is the slope without inhibitor added. To calculate apparent binding constant Ki least square fitting of measured slopes at various inhibitor concentrations to this equation is performed with Ki and V0 as variables.
(§4) Purified protease variants are pre-diluted to approximately 0.2 mg/ml in dilution buffer. The experimental conditions are described in Table 5. 40 μl diluted protease is then mixed with 40 μl inhibitor solution Inhibitor 1: (Cbz-Gly-Ala-NHCH(CH2C6H4pOH)C(OH)(SO3Na)—H, wherein Cbz is benzyloxycarbonyl) or 40 μl Inhibitor 2: (4-FPBA) solution in the well of a 96 well microtiter plate (Nunc F 96-MTP). […] After 10 min mixing of protease and inhibitor at room temperature, 30 μl of the mixture is transferred to a microtiter plate (Nunc U96 PP 0.5 ml) with 270 μl Model B detergent (described in Table 1) in the wells resulting in inhibitor 1 concentrations of 0-30 μM and inhibitor 2 concentrations of 0-6000 μM. Protease, inhibitor and detergent is mixed for 1 hour using magnetic bars for 1 hour at room temperature to reach equilibrium. Then 20 μl is transferred to a microtiter plate (Nunc F 96-MTP). 100 μl substrate solution is added and after 5 sec mixing absorbance at 405 nm is measured every 20 sec for 5 min on a SpectraMax Plus reader. Slope from linear regression of initial increase in absorbance at 405 nm is used for calculation of apparent binding constants. Ki values were calculated according to the “Calculation of Ki” method described in “Materials and Methods”
(§5) Having the Ki for each variant, it is possible to calculate the effect of a single mutation, if data are available for at least two variants that differ only by that mutation. In this case, the relative Ki for the mutation (Improvement Factor, or IF) is calculated:
(§6) A lower Ki is desirable, as a satisfactory inhibition can be obtained at a lower inhibitor concentration, so beneficial mutations have an IF>1.0

Assay [2] can be described thus: Inhibitor binding assay of SEQ ID NO 3 variants, Inhibitor 2, in Model B detergent. The class given is biochemical. The note with it: in Model B relative to SEQ ID NO 3; relative Ki, IF>1.0 = lower Ki.
Excerpt: as §1, §2, §3, §4, §5, §6

The mark [3] stands for this setting: in Model B relative to SEQ ID NO 3.
The mark [4] stands for this setting: in Model B relative to SEQ ID NO 3 comprising S173P + S175P + F180Y.

Numbering of substitutions follows the chain as printed. Names and notes keep the numbering of the source. Values joined by “and” are separate entries in the source; they are usually repeats but may differ in a detail not shown here. Equal entries are not always repeated.

B1: G182A: protease variant of SEQ ID NO 3 (protein, listed as Bacillus sp.)
chain: AVPSTQTPWGIKSIYNDQSITKTTGGSGIKVAVLDTGVYTSHLDLAGSAEQCKDFTQSNPLVDGSCTDRQGHGTHVAGTVLAHGGSNGQGVYGVAPQAKLWAYKVLGDNGSGYSDDIAAAIRHVADEASRTGSKVVINMSLGSSAKDSLIASAVDYAYGKGVLIVAAAGNSGSGSNTIGFPAGLVNAVAVAALENVQQNGTYRVADFSSRGNPATAGDYIIQERDIEVSAPGASVESTWYTGGYNTISGTSMATPHVAGLAAKIWSANTSLSHSQLRTELQNRAKVYDIKGGIGAGTGDDYASGFGYPRVK
As for B1, in assay [1] (setting [3]), the “inhibitor 1 binding constant improvement factors (IF)” value was found to be 1.86.

B2: S173P + S175P + I178F + F180Y: protease variant of SEQ ID NO 3 (protein, listed as Bacillus sp.)
chain: B1 chain with S173P, S175P, I178F, F180Y, A182G
As to B2, the “inhibitor 1 binding constant improvement factors (IF)” value in assay [1] (setting [4]) was 2.34 and 1.83.

B3: K146S + S173P + S175P + F180Y: protease variant of SEQ ID NO 3 (protein, listed as Bacillus sp.)
chain: B1 chain with K146S, S173P, S175P, F180Y, A182G
With B3, the “inhibitor 1 binding constant improvement factors (IF)” value in assay [1] (setting [4]) came to 1.13.

B4: K146F + S173P + S175P + F180Y: protease variant of SEQ ID NO 3 (protein, listed as Bacillus sp.)
chain: B1 chain with K146F, S173P, S175P, F180Y, A182G
Turning to B4, in assay [1] (setting [4]), the “inhibitor 1 binding constant improvement factors (IF)” value is on record as 5.17.

B5: S173P + S175P + F180Y + L184F: protease variant of SEQ ID NO 3 (protein, listed as Bacillus sp.)
chain: B1 chain with S173P, S175P, F180Y, A182G, L184F
B5: the “inhibitor 1 binding constant improvement factors (IF)” value in assay [1] (setting [4]) was 4.28 and 3.02.

B6: K146T + S173P + S175P + F180Y: protease variant of SEQ ID NO 3 (protein, listed as Bacillus sp.)
chain: B1 chain with K146T, S173P, S175P, F180Y, A182G
Consider B6, for which the “inhibitor 1 binding constant improvement factors (IF)” value in assay [1] (setting [4]) came to 15.91.

B7: S114A + S173P + S175P + F180Y: protease variant of SEQ ID NO 3 (protein, listed as Bacillus sp.)
chain: B1 chain with S114A, S173P, S175P, F180Y, A182G
For B7, the “inhibitor 1 binding constant improvement factors (IF)” value in assay [1] (setting [4]) was found to be 3.33.

B8: L184Y: protease variant of SEQ ID NO 3 (protein, listed as Bacillus sp.)
chain: B1 chain with A182G, L184Y
For the molecule B8, the “inhibitor 1 binding constant improvement factors (IF)” value in assay [1] (setting [3]) turned out to be 4.47.

B9: S173P + S175P + F180Y + L184Y: protease variant of SEQ ID NO 3 (protein, listed as Bacillus sp.)
chain: B1 chain with S173P, S175P, F180Y, A182G, L184Y
Turning to B9, the “inhibitor 1 binding constant improvement factors (IF)” value in assay [1] (setting [4]) turned out to be 3.91.

B10: S173P + S175P + F180Y + L184H: protease variant of SEQ ID NO 3 (protein, listed as Bacillus sp.)
chain: B1 chain with S173P, S175P, F180Y, A182G, L184H
In the case of B10, the “inhibitor 1 binding constant improvement factors (IF)” value in assay [1] (setting [4]) was determined as 2.50.

B11: S144R: protease variant of SEQ ID NO 3 (protein, listed as Bacillus sp.)
chain: B1 chain with S144R, A182G
As for B11, the “inhibitor 2 binding constant improvement factors (IF)” value in assay [2] is 2.03.

B12: S173P + S175P + I178P + F180Y: protease variant of SEQ ID NO 3 (protein, listed as Bacillus sp.)
chain: B1 chain with S173P, S175P, I178P, F180Y, A182G
For B12, the “inhibitor 1 binding constant improvement factors (IF)” value in assay [1] (setting [4]) was 2.22.

B13: S173P + S175P + I178Y + F180Y: protease variant of SEQ ID NO 3 (protein, listed as Bacillus sp.)
chain: B1 chain with S173P, S175P, I178Y, F180Y, A182G
In the case of B13, the “inhibitor 1 binding constant improvement factors (IF)” value in assay [1] (setting [4]) worked out at 2.15.

B14: S173P + S175P + F180Y + L184D: protease variant of SEQ ID NO 3 (protein, listed as Bacillus sp.)
chain: B1 chain with S173P, S175P, F180Y, A182G, L184D
For the molecule B14, the “inhibitor 1 binding constant improvement factors (IF)” value in assay [1] (setting [4]) was 3.28.

B15: S114Q + S173P + S175P + F180Y: protease variant of SEQ ID NO 3 (protein, listed as Bacillus sp.)
chain: B1 chain with S114Q, S173P, S175P, F180Y, A182G
With B15, the “inhibitor 1 binding constant improvement factors (IF)” value in assay [1] (setting [4]) came out at 2.03.

B16: S111D: protease variant of SEQ ID NO 3 (protein, listed as Bacillus sp.)
chain: B1 chain with S111D, A182G
For B16, the “inhibitor 2 binding constant improvement factors (IF)” value in assay [2] stood at 1.53.

B17: S111E: protease variant of SEQ ID NO 3 (protein, listed as Bacillus sp.)
chain: B1 chain with S111E, A182G
On to B17, for which the “inhibitor 2 binding constant improvement factors (IF)” value in assay [2] was determined as 1.23.

B18: K146W + S173P + S175P + F180Y: protease variant of SEQ ID NO 3 (protein, listed as Bacillus sp.)
chain: B1 chain with K146W, S173P, S175P, F180Y, A182G
Regarding B18, the “inhibitor 1 binding constant improvement factors (IF)” value in assay [1] (setting [4]) was found to be 5.47.

B19: Q70A + S173P + S175P + F180Y: protease variant of SEQ ID NO 3 (protein, listed as Bacillus sp.)
chain: B1 chain with Q70A, S173P, S175P, F180Y, A182G
As for B19, the “inhibitor 1 binding constant improvement factors (IF)” value in assay [1] (setting [4]) came to 4.13.

B20: S111I + S173P + S175P + F180Y: protease variant of SEQ ID NO 3 (protein, listed as Bacillus sp.)
chain: B1 chain with S111I, S173P, S175P, F180Y, A182G
On to B20, for which, in assay [1] (setting [4]), the “inhibitor 1 binding constant improvement factors (IF)” value was 1.12.

B21: K146R + S173P + S175P + F180Y: protease variant of SEQ ID NO 3 (protein, listed as Bacillus sp.)
chain: B1 chain with K146R, S173P, S175P, F180Y, A182G
In the case of B21, in assay [1] (setting [4]), the “inhibitor 1 binding constant improvement factors (IF)” value is on record as 1.31.

B22: S173P + S175P + F180Y + G182S: protease variant of SEQ ID NO 3 (protein, listed as Bacillus sp.)
chain: B1 chain with S173P, S175P, F180Y, A182S
As to B22, in assay [1] (setting [4]), the “inhibitor 1 binding constant improvement factors (IF)” value was 1.69.

B23: S173P + S175P + F180Y + L184W: protease variant of SEQ ID NO 3 (protein, listed as Bacillus sp.)
chain: B1 chain with S173P, S175P, F180Y, A182G, L184W
Take B23: the “inhibitor 1 binding constant improvement factors (IF)” value in assay [1] (setting [4]) is given as 2.23.

B24: S114F + S173P + S175P + F180Y: protease variant of SEQ ID NO 3 (protein, listed as Bacillus sp.)
chain: B1 chain with S114F, S173P, S175P, F180Y, A182G
Regarding B24, the “inhibitor 1 binding constant improvement factors (IF)” value in assay [1] (setting [4]) was 1.41.

B25: A145E: protease variant of SEQ ID NO 3 (protein, listed as Bacillus sp.)
chain: B1 chain with A145E, A182G
As to B25, the “inhibitor 2 binding constant improvement factors (IF)” value in assay [2] came to 1.03.

B26: K146N + S173P + S175P + F180Y: protease variant of SEQ ID NO 3 (protein, listed as Bacillus sp.)
chain: B1 chain with K146N, S173P, S175P, F180Y, A182G
Consider B26, for which the “inhibitor 1 binding constant improvement factors (IF)” value in assay [1] (setting [4]) was 1.36.

B27: K146A + S173P + S175P + F180Y: protease variant of SEQ ID NO 3 (protein, listed as Bacillus sp.)
chain: B1 chain with K146A, S173P, S175P, F180Y, A182G
On to B27, for which, in assay [1] (setting [4]), the “inhibitor 1 binding constant improvement factors (IF)” value is 3.72.

B28: S173P + S175P + F180Y + G182A: protease variant of SEQ ID NO 3 (protein, listed as Bacillus sp.)
chain: B1 chain with S173P, S175P, F180Y
B28: the “inhibitor 1 binding constant improvement factors (IF)” value in assay [1] (setting [4]) was 2.49 and 2.01.

Values taken from patent US20170342349A1, “STABILIZED ENZYME COMPOSITIONS” (NOVOZYMES A/S, priority 2014, published 2017).
